Each sequence was assayed against Grb2 SH2 (UniProt P62993) (assay: SH2 binding enrichment of the phosphorylated peptide, bacterial display (enrichment ratio); higher = better substrate or ligand; peptides without Tyr show the background).
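Throughout, for SH2 binding enrichment of the phosphorylated peptide, bacterial display: peptide library displayed on the E. coli surface as eCPX fusions, selected cells deep-sequenced, score is each peptide's frequency after selection divided by its frequency in the input.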
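Throughout, for phosphorylation enrichment, bacterial display: 11-residue human phosphosite peptides and single-mutation variants displayed on the E. coli surface, counted by deep sequencing, each peptide's frequency after selection divided by its frequency in the unselected input library; frequency after pTyr selection over input frequency; kinase dosed for 20-30% of maximal phosphorylation in three min.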

Sequence of Grb2 SH2 (P62993 whole entry, looked up, the tested form may be a part): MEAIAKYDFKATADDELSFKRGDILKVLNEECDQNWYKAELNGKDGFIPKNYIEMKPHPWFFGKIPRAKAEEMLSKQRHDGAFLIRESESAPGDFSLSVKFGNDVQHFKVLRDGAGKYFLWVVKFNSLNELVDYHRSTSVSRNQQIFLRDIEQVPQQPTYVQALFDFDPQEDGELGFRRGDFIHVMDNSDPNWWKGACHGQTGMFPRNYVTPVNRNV

Point of comparison: YTGNTYRVGDT [FN1_Y106], SH2 binding enrichment 0.766. Against it:
- PIYEGYGLPHA [ACTA1_Y171_A172G] — higher, 0.79
- PSALGYSPSLR [LLGL2_Y40] — higher, 0.958
- IAAEFYDNLPH [DEGS1_Y284_YF] — higher, 0.774
- EREFKYGAHKF [OAT_Y50_N54K_YF] — higher, 0.846
- NLVSEYQQFQD [TUBB3_Y422_D417N_YF] — lower, 0.74
- QFKGKYLAKHN [CASK_Y712_D710G_YF] — higher, 1.29
- KRIKSYNQEND [RPGRIP1L_Y448_L447S] — lower, 0.711
- IIQRAYRGHLL [SCN1A_Y1926_R1928G] — lower, 0.758
- LFEDRYLLGPS [ASS1_Y87_T91P_YF] — higher, 0.965
- KNDSIYVVKGN [KIT_Y823_N822I] — higher, 0.848
- RRIHCYRGHLW [VHL_Y112_S111C] — lower, 0.722
- GRGMPYGGRGD [TGM1_Y312_R307G] — higher, 0.87
- CLNAIYQNNLT [GSR_Y158_R153C] — higher, 4.11
- RKLVDYNSARH [BIN1_Y150_D151N] — higher, 0.972
- GEDPIYVTLEG [RTKtide_2018] — higher, 0.906
- RLLRGHDQYAY [HLA-B_Y137] — higher, 1.19
- LHSEAYLKYIE [PBRM1_Y1610] — lower, 0.664
- VDGSVYELHPS [GCK_Y413_K414E] — higher, 0.944
- EPGSLYGCGGG [ATM_Y2019_D2016G] — higher, 1.24
- DTMQTYNGNDE [TSPAN7_Y131_A127T] — higher, 0.874
- KKGMIYGGGGG [PSME1_Y249_T244K] — the same, 0.766
- YNDSAYNQQLI [ZPLD1_Y198_T197A] — higher, 0.833
- PKFHSYVSLPF [PLXNA2_Y293] — higher, 0.992
- SIKDKYVTAFF [KCNH2_Y611_L615F_YF] — higher, 1.04
- TVFSDYLHPQF [CCPG1_Y569_YF] — lower, 0.667
- AIDDKYSRREE [SART1_Y685] — higher, 0.937
- AGIKAYQSCLQ [ADGRA2_Y377_T375K] — higher, 0.767
- YRASYYRRGDR [LTK_Y677] — lower, 0.704
- YLELNYKEDEY [MME_Y502] — higher, 0.802
- GIYEDYVEGLR [MYL6_Y89_T85I] — lower, 0.697
- EILLSYPRTGY [TGM1_Y365_L366P] — higher, 0.929
- ITRDEYPSNPM [CEMIP2_Y1015] — lower, 0.717

The sequences below were run against SHP2-C SH2 in the same assay as above.

Point of comparison: SIKDKYVTAFF [KCNH2_Y611_L615F_YF], SH2 binding enrichment 0.848. Against it:
- PIYEGYGLPHA [ACTA1_Y171_A172G] — lower, 0.52
- PSALGYSPSLR [LLGL2_Y40] — higher, 1.04
- IAAEFYDNLPH [DEGS1_Y284_YF] — lower, 0.697
- EREFKYGAHKF [OAT_Y50_N54K_YF] — lower, 0.585
- NLVSEYQQFQD [TUBB3_Y422_D417N_YF] — lower, 0.673
- QFKGKYLAKHN [CASK_Y712_D710G_YF] — higher, 1.16
- KRIKSYNQEND [RPGRIP1L_Y448_L447S] — lower, 0.681
- IIQRAYRGHLL [SCN1A_Y1926_R1928G] — lower, 0.559
- LFEDRYLLGPS [ASS1_Y87_T91P_YF] — lower, 0.515
- KNDSIYVVKGN [KIT_Y823_N822I] — lower, 0.707
- RRIHCYRGHLW [VHL_Y112_S111C] — lower, 0.568
- GRGMPYGGRGD [TGM1_Y312_R307G] — lower, 0.648
- CLNAIYQNNLT [GSR_Y158_R153C] — lower, 0.67
- RKLVDYNSARH [BIN1_Y150_D151N] — lower, 0.814
- GEDPIYVTLEG [RTKtide_2018] — lower, 0.485
- RLLRGHDQYAY [HLA-B_Y137] — higher, 1.37
- YTGNTYRVGDT [FN1_Y106] — lower, 0.55
- LHSEAYLKYIE [PBRM1_Y1610] — lower, 0.445
- VDGSVYELHPS [GCK_Y413_K414E] — higher, 1.01
- EPGSLYGCGGG [ATM_Y2019_D2016G] — lower, 0.695
- DTMQTYNGNDE [TSPAN7_Y131_A127T] — lower, 0.578
- KKGMIYGGGGG [PSME1_Y249_T244K] — lower, 0.632
- YNDSAYNQQLI [ZPLD1_Y198_T197A] — lower, 0.552
- PKFHSYVSLPF [PLXNA2_Y293] — higher, 1.47
- TVFSDYLHPQF [CCPG1_Y569_YF] — lower, 0.757
- AIDDKYSRREE [SART1_Y685] — higher, 0.968
- AGIKAYQSCLQ [ADGRA2_Y377_T375K] — lower, 0.64
- YRASYYRRGDR [LTK_Y677] — lower, 0.609
- YLELNYKEDEY [MME_Y502] — lower, 0.71
- GIYEDYVEGLR [MYL6_Y89_T85I] — lower, 0.717
- EILLSYPRTGY [TGM1_Y365_L366P] — lower, 0.699
- ITRDEYPSNPM [CEMIP2_Y1015] — lower, 0.629

What follows are sequences tested against c-Src SH2 in the same assay as above.

Point of comparison: DTMQTYNGNDE [TSPAN7_Y131_A127T], SH2 binding enrichment 0.44. Against it:
- PIYEGYGLPHA [ACTA1_Y171_A172G] — higher, 0.739
- PSALGYSPSLR [LLGL2_Y40] — higher, 0.493
- IAAEFYDNLPH [DEGS1_Y284_YF] — higher, 0.77
- EREFKYGAHKF [OAT_Y50_N54K_YF] — higher, 0.464
- NLVSEYQQFQD [TUBB3_Y422_D417N_YF] — higher, 0.64
- QFKGKYLAKHN [CASK_Y712_D710G_YF] — higher, 1.16
- KRIKSYNQEND [RPGRIP1L_Y448_L447S] — higher, 0.503
- IIQRAYRGHLL [SCN1A_Y1926_R1928G] — higher, 0.5
- LFEDRYLLGPS [ASS1_Y87_T91P_YF] — higher, 0.552
- KNDSIYVVKGN [KIT_Y823_N822I] — higher, 0.507
- RRIHCYRGHLW [VHL_Y112_S111C] — higher, 0.583
- GRGMPYGGRGD [TGM1_Y312_R307G] — higher, 0.513
- CLNAIYQNNLT [GSR_Y158_R153C] — higher, 0.807
- RKLVDYNSARH [BIN1_Y150_D151N] — higher, 0.686
- GEDPIYVTLEG [RTKtide_2018] — higher, 0.718
- RLLRGHDQYAY [HLA-B_Y137] — higher, 1.29
- YTGNTYRVGDT [FN1_Y106] — lower, 0.406
- LHSEAYLKYIE [PBRM1_Y1610] — higher, 0.443
- VDGSVYELHPS [GCK_Y413_K414E] — higher, 0.743
- EPGSLYGCGGG [ATM_Y2019_D2016G] — higher, 0.589
- KKGMIYGGGGG [PSME1_Y249_T244K] — higher, 0.666
- YNDSAYNQQLI [ZPLD1_Y198_T197A] — lower, 0.388
- PKFHSYVSLPF [PLXNA2_Y293] — higher, 2.17
- SIKDKYVTAFF [KCNH2_Y611_L615F_YF] — higher, 0.589
- TVFSDYLHPQF [CCPG1_Y569_YF] — higher, 0.591
- AIDDKYSRREE [SART1_Y685] — the same, 0.44
- AGIKAYQSCLQ [ADGRA2_Y377_T375K] — higher, 0.57
- YRASYYRRGDR [LTK_Y677] — lower, 0.411
- YLELNYKEDEY [MME_Y502] — higher, 4.38
- GIYEDYVEGLR [MYL6_Y89_T85I] — higher, 0.51
- EILLSYPRTGY [TGM1_Y365_L366P] — higher, 0.58
- ITRDEYPSNPM [CEMIP2_Y1015] — higher, 0.475

The sequences below were run against Jak2 (UniProt O60674) (assay: phosphorylation enrichment, bacterial display (enrichment ratio); higher = better substrate or ligand; peptides without Tyr show the background).
Sequence of Jak2 (O60674 whole entry, looked up): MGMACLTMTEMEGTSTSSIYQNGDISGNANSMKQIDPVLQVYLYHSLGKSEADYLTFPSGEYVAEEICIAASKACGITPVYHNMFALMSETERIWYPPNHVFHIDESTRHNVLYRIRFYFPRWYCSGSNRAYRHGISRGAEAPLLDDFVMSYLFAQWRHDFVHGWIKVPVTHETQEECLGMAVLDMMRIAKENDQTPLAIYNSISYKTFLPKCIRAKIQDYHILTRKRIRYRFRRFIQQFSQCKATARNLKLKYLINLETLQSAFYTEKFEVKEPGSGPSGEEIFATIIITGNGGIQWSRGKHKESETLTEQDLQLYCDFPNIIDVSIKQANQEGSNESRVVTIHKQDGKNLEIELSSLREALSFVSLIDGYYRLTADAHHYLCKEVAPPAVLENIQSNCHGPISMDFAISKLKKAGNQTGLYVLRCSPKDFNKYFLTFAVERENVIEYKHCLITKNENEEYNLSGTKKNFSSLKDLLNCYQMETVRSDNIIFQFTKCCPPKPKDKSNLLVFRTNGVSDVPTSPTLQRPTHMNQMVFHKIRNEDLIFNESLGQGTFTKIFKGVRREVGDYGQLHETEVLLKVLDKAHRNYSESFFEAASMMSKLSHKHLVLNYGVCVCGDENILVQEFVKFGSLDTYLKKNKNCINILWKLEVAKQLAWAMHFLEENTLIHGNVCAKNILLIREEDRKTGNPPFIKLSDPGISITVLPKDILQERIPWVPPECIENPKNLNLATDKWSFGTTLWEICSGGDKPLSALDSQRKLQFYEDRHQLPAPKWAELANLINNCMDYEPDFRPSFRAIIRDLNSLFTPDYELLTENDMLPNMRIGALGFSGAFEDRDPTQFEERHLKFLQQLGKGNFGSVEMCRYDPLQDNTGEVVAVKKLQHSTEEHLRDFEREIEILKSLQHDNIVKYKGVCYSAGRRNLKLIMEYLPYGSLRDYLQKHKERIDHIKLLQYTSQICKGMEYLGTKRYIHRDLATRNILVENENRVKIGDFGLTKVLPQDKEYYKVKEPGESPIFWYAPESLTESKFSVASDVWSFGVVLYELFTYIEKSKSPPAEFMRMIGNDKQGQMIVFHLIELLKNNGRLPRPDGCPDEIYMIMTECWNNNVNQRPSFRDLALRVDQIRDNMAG

Point of comparison: KKGMIYGGGGG [PSME1_Y249_T244K], phosphorylation enrichment 0.487. Against it:
- PIYEGYGLPHA [ACTA1_Y171_A172G] — higher, 0.833
- PSALGYSPSLR [LLGL2_Y40] — higher, 0.908
- IAAEFYDNLPH [DEGS1_Y284_YF] — higher, 0.559
- EREFKYGAHKF [OAT_Y50_N54K_YF] — higher, 0.571
- NLVSEYQQFQD [TUBB3_Y422_D417N_YF] — higher, 1.08
- QFKGKYLAKHN [CASK_Y712_D710G_YF] — higher, 0.855
- KRIKSYNQEND [RPGRIP1L_Y448_L447S] — lower, 0.466
- IIQRAYRGHLL [SCN1A_Y1926_R1928G] — higher, 0.555
- LFEDRYLLGPS [ASS1_Y87_T91P_YF] — higher, 1.73
- KNDSIYVVKGN [KIT_Y823_N822I] — higher, 0.516
- RRIHCYRGHLW [VHL_Y112_S111C] — higher, 0.702
- GRGMPYGGRGD [TGM1_Y312_R307G] — higher, 0.488
- CLNAIYQNNLT [GSR_Y158_R153C] — higher, 0.744
- RKLVDYNSARH [BIN1_Y150_D151N] — lower, 0.425
- GEDPIYVTLEG [RTKtide_2018] — higher, 1.2
- RLLRGHDQYAY [HLA-B_Y137] — higher, 0.56
- YTGNTYRVGDT [FN1_Y106] — higher, 0.563
- LHSEAYLKYIE [PBRM1_Y1610] — higher, 1.55
- VDGSVYELHPS [GCK_Y413_K414E] — higher, 0.981
- EPGSLYGCGGG [ATM_Y2019_D2016G] — higher, 0.707
- DTMQTYNGNDE [TSPAN7_Y131_A127T] — higher, 0.976
- YNDSAYNQQLI [ZPLD1_Y198_T197A] — higher, 0.696
- PKFHSYVSLPF [PLXNA2_Y293] — higher, 1.59
- SIKDKYVTAFF [KCNH2_Y611_L615F_YF] — higher, 0.526
- TVFSDYLHPQF [CCPG1_Y569_YF] — higher, 1.83
- AIDDKYSRREE [SART1_Y685] — higher, 0.794
- AGIKAYQSCLQ [ADGRA2_Y377_T375K] — higher, 0.841
- YRASYYRRGDR [LTK_Y677] — lower, 0.436
- YLELNYKEDEY [MME_Y502] — higher, 1.3
- GIYEDYVEGLR [MYL6_Y89_T85I] — higher, 0.946
- EILLSYPRTGY [TGM1_Y365_L366P] — higher, 0.867
- ITRDEYPSNPM [CEMIP2_Y1015] — higher, 0.497

— the supplement of paper PMC10065799, “High-throughput profiling of sequence recognition by tyrosine kinases and SH2 domains using bacterial peptide display” (eLife, 2023)
